These are literature values, as cited in US8399407B2 (Case Western Reserve University, priority 2009, dated 2013).

For this series the following is noted: pH 7.4 and 37° C.

On to Asp^B28-insulin, for which the “Susceptibility to fibrillation compared with human insulin” value is reported as “more susceptible to fibrillation”.
